Test results taken from patent US20130260394A1.

Key:
[1] = target: membrane receptor interacting with BLV (unknown) (human); experiment: flow cytometry, tagged RBD on sputum neutrophils of one CF patient
[2] = target: membrane receptor interacting with BLV (unknown) (human); experiment: flow cytometry, tagged RBD on blood neutrophils of one CF patient

Bovine Leukaemia Virus receptor-binding domain (BLV RBD) (from UniProt P25507 34-215)
deltaGeomean of fluorescence [1]: 140 | deltaGeomean of fluorescence [2]: 0
